Source: US20110274702A1 (INSTITUTE FOR RESEARCH IN BIOMEDICINE, published 2011)

B1: FI28 variant 1 (antibody, V domains shown)
VH: EVQLVESGGGAVQPGESLKLSCAASGFTFSNYGMHWVRQAPGKGLEWVAVISYDGSNKYYADSVKGRFTISRDNSKDTLYLQMNSLRAEDTALFYCAKERPLRLLRYFDWLSGGANDYWGQGTLVTVSS
VL: DIVMTQSPDSLAVSLGERATINCKSSQSVLYSSNNKNYLAWYQQKPGQPPKLLIDWASTRESGVPDRFSGSGSGTDFTLTISNLQVEDVAVYYCQQYYRSPSFGQGTKLEIK
B2: FI6 variant 3 (antibody, V domains shown)
VH: QVQLVESGGGVVQPGRSLRLSCAASGFTFSTYAMHWVRQAPGKGLEWVAVISYDANYKYYADSVKGRFTISRDNSKNTLYLQMNSLRAEDTAVYYCAKDSQLRSLLYFEWLSQGYFDYWGQGTLVTVSS
VL: not shown
B3: FI6 variant 2 (antibody, V domains shown)
VH: QVQLVQSGGGVVQPGRSLRLSCVASGFTFSTYAMHWVRQAPGRGLEWVAVISYDGNYKYYADSVKGRFSISRDNSNNTLHLEMNTLRTEDTALYYCAKDSQLRSLLYFEWLSQGYFDPWGQGTLVTVTS
VL: DIQMTQSPDSLAVSLGARATINCKSSQSVTFNYKNYLAWYQQKPGQPPKVLIYWASARESGVPDRFSGSGSGTDFTLTISSLQAEDVAVYYCQQHYRTPPTFGQGTKVEIK

Key:
Experiment in all cases: cell-based or functional assay
[1] = target: H5N1 A/VN/1203/04 HA on pseudotyped virus (influenza A virus H5N1 A/VN/1203/04)
HA A/VN/1194/04 (H5) = HA A/VN/1194/04 (H5) (influenza A virus H5 A/VN/1194/04)
[2] = target: H7N1 A/ck/FPV/Ro/34 HA on pseudotyped virus (influenza A virus H7N1 …, UniProt P03459 19-563)

Row | Binder | Neutralization of HA-pseudotypes (IC90, µg/ml) [1] [µg/mL] | Neutralization H5 A/VN/1194/04 pseudovirus, IC50 (HA A/VN/1194/04 (H5)) [µg/mL] | Neutralization H7 A/ck/FPV Rostock/34 pseudovirus, IC50 [2] [µg/mL]
1 | B1 | 0.02 |  | 
2 | B2 |  | 0.0035 | 0.0274
3 | B3 |  | 0.0054 | 0.02
